The values that follow come from patent US20100008928A1 (Takeda / Millennium, published 2010).

Assay [1] addresses T1, human nectin-2δ protein (human, UniProt Q92692 32-538).
T1 sequence: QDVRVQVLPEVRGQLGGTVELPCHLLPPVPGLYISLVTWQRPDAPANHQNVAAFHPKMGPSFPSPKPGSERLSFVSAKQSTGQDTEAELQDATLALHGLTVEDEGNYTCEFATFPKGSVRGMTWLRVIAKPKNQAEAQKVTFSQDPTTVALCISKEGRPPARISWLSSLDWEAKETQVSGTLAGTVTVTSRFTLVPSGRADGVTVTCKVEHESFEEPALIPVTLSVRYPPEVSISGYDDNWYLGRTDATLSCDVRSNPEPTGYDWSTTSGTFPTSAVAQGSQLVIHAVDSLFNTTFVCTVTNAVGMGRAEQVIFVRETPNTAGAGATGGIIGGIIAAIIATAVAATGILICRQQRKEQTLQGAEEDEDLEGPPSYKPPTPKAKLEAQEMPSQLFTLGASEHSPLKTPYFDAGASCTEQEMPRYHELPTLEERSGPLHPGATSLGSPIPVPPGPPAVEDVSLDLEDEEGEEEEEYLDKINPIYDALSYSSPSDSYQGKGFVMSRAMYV
Put plainly: Cell ELISA.
Method: In other words, the CHO cell line (#43-2) stably expressing nectin-2δ and the mock-CHO cell line were incubated in a 96-well tissue culture plate charged with GS-selection DMEM medium supplemented with 10% dialyzed FBS and GS supplement. After the culture supernatant of the plate where each cell line became confluent was removed by aspiration, 200 μL/well of PBS(+) supplemented with 2% FBS was added thereto and incubated on ice in the dark for an hour. After the supernatant of each well was removed by aspiration, 50 μL each/well of the hybridoma culture supernatant was added and reacted on ice in the dark for 2 hours. After this plate was washed once with PBS(+) chilled at 4° C., anti-human IgG (H+L) chain specific (GOAT) peroxidase conjugate (CALBIOCHEM) diluted to 3,000-fold with PBS(+) supplemented with 2% FBS was added by 100 μL each/well and reacted on ice in the dark for 2 hours. […] Absorbance (450 nm) of each well was measured using a plate reader (Multiskan BICHROMATIC; Thermo Electron Co.), and those showing absorbance of 0.5 or more in the nectin-2 expression CHO cell line plate and showing absorbance of less than 0.3 in the mock-CHO cell line plate were judged to be positive wells. […]

The target in assay [2] is T2, cynomolgus monkey nectin-2 protein (cynomolgus monkey, UniProt Q92692 32-538 (human entry)).
T2 construct: transient in CHO-K1; also called maNectin-2
T2 chain: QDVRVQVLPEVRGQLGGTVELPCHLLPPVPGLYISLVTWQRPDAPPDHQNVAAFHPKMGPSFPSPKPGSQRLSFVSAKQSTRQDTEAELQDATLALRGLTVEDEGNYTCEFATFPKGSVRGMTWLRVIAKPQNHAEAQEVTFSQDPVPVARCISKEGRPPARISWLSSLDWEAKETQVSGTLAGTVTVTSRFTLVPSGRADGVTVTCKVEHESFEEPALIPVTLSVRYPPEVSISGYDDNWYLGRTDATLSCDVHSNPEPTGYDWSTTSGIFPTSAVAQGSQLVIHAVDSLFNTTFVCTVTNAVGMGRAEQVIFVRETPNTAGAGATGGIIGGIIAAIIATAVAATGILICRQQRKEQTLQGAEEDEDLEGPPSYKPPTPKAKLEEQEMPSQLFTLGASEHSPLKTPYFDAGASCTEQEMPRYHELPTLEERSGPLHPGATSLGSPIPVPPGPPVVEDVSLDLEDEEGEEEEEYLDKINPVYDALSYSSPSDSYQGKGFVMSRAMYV
As to the kind of experiment: FCM.
Method: (§1) Then, after 200 μL of FCM buffer was added to each well and washed once by centrifugal operation, 50 μL each of Alexa488-labeled secondary antibody diluted in FCM buffer to 10 μg/mL was added thereto for suspension, and the mixture was then reacted on ice for an hour. As secondary antibodies, Alexa Fluor488 goat anti-human IgG (H+L) was used for the human antibodies and Alexa Fluor488 goat anti-rabbit IgG (H+L) (Invitrogen) was used for the rabbit antibody, respectively. Next, the cells were washed twice with FCM buffer and then resuspended in 250 μL of FCM buffer.

In assay [3] the target is T1, human nectin-2δ protein. As to the kind of experiment: FCM.
Method: as §1
The target in another assay is T3, human nectin-2δ G113R (human, UniProt Q92692 32-538).
T3 construct: transient in CHO-K1; also called Nectin-2 (G113R)
T3 sequence: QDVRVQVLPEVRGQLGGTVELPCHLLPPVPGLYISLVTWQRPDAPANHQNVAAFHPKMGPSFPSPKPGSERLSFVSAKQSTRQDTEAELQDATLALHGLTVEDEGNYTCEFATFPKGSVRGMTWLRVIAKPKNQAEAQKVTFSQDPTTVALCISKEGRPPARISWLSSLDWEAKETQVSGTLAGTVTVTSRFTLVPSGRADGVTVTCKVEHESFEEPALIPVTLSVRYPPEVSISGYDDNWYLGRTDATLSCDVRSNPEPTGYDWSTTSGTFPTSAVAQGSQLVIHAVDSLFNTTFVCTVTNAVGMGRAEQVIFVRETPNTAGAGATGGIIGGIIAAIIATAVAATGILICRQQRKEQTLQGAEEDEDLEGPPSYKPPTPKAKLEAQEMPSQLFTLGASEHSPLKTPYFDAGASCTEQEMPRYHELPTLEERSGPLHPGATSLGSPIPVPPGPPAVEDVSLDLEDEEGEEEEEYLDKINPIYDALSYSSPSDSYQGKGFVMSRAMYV
As to the kind of experiment: FCM.

The target in the next assay is T4, human nectin-2δ H128R (human, UniProt Q92692 32-538).
T4 construct: transient in CHO-K1; also called Nectin-2 (H128R)
T4 sequence: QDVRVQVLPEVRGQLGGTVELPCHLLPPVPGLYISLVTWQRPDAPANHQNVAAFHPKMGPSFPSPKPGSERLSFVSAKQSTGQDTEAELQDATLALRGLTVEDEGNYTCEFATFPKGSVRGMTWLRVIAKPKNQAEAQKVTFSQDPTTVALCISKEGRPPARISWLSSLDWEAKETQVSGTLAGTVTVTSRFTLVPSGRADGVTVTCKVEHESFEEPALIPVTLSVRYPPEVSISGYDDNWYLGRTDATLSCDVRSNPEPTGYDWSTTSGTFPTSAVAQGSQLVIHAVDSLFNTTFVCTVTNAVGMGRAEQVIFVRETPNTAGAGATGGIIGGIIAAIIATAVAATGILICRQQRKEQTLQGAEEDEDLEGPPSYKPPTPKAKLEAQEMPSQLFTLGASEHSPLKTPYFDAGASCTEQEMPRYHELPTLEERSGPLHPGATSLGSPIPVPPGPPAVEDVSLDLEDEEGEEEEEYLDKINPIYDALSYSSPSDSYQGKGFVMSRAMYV
Put plainly: FCM.

Assay [4] concerns the target T5, human nectin-2δ AN77-78PD (human, UniProt Q92692 32-538).
T5 construct: transient in CHO-K1; also called Nectin-2 (AN77-78PD)
T5 sequence: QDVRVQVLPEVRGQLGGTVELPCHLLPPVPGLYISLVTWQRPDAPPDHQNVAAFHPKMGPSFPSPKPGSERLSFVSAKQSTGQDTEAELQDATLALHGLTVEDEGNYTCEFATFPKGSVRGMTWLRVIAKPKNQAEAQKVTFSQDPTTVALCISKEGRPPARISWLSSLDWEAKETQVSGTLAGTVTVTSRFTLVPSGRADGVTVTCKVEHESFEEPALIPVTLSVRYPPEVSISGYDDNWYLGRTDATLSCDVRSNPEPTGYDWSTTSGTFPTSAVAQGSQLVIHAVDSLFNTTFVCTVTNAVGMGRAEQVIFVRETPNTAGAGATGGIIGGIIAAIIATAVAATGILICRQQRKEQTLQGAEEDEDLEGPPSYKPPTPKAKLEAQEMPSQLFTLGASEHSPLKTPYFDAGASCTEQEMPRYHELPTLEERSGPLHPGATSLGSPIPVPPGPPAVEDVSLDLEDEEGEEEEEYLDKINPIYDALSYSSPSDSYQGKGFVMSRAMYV
As to the kind of experiment: FCM.
Method: (§2) Then, after 200 μL of FCM buffer was added to each well and washed once by centrifugal operation, 50 μL of Alexa Fluor488 goat anti-human IgG (H+L) diluted in FCM buffer to 10 μg/mL was added thereto for suspension, and the mixture was then reacted on ice for an hour. Next, the cells were washed twice with FCM buffer and resuspended in 250 μL of FCM buffer. Using flow cytometer MPL500 (BECKMAN COULTER), the fluorescence intensities of stained cells were measured, respectively.

For assay [5], the target named is T6, nectin-2 Ig1 domain-deficient protein (human, UniProt Q92692 32-538).
T6 construct: transient in CHO-K1; also called delta-Ig1; Nectin-2ΔIg1
T6 sequence: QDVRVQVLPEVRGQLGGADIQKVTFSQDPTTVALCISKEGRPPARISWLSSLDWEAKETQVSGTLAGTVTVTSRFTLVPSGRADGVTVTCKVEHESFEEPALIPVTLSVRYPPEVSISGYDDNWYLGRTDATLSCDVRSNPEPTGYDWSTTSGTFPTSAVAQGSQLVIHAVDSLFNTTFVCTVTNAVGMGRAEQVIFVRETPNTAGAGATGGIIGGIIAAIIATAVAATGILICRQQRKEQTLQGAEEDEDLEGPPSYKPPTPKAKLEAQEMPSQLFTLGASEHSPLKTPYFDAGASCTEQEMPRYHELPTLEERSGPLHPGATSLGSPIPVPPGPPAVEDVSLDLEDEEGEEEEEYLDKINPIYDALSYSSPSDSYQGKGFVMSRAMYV
As to the kind of experiment: FCM.
Method: (§3) After 200 μL of FCM buffer was added to each well and washed once by centrifugal operation, 50 μL each of Alexa488-labeled secondary antibody diluted in FCM buffer to 10 μg/mL was added to and mixed therewith, and the mixture was then reacted on ice for an hour. The Alexa488-labeled secondary antibody used was Alexa Fluor488 goat anti-human IgG (H+L) for the human antibodies and Alexa Fluor488 goat anti-rabbit IgG (H+L) (Invitrogen) for the rabbit antibody. The cells in each well were washed twice with FCM buffer and then resuspended in 250 μL of FCM buffer. Using the flow cytometer MPL500 (BECKMAN COULTER), the fluorescence intensity of stained cells was measured to determine the ratio of the median value of fluorescence intensities of the respective antibodies in the primary antibody group to the median value of fluorescence intensities in the negative control group.

Assay [6] has as its target T7, nectin-2 Ig2 domain-deficient protein (human, UniProt Q92692 32-538).
T7 construct: transient in CHO-K1; also called delta-Ig2; Nectin-2ΔIg2
T7 sequence: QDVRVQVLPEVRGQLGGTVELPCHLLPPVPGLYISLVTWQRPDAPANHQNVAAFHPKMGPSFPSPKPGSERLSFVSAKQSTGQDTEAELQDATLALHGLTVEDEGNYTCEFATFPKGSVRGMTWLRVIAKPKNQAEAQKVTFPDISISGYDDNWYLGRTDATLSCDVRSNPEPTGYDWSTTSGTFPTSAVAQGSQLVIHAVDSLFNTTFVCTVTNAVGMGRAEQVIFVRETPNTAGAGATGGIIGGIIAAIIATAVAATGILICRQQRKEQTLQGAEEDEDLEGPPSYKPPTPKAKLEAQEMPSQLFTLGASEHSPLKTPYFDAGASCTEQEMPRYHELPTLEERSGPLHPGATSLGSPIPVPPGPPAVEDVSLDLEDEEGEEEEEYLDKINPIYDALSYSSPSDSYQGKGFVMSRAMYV
Put plainly: FCM.
Method: as §3

Method for human nectin-2δ G113R: as §2
Method for human nectin-2δ H128R: as §2

B1: Nec1-554-1 (antibody, human IgG1, V domains shown)
VH: EVQLVESGGGLVKPGGSLRLSCAASGFTFSSYNMNWVRQAPGKGLEWVSSISSSSSYIYYADSVKGRFTISRDNAKNSLYLQMNSLRAEDTAVYYCARDYYGSGTYYLFDYWGQGTLVTVSS
VL: EIVLTQSPDFQSVTPKEKVTITCRASQSIGSSLHWYQQKPDQSPKLLIKYASQSFSGVPSRFSGSGSGTDFTLTINSLEAEDAAAYYCHQSRSLPITFGQGTRLEIK
notes: human IgG1/k from hybridoma FERM BP-10681
Usually EC50 stands for the concentration that produces a half-maximal response. Molecule B1 showed an EC50 with human nectin-2δ protein [1] of 1.11 nM. Also, the median fluorescence ratio came out at 14.8 in assay [2]; 43 in the assay with human nectin-2δ protein [3]; 38.7 with human nectin-2δ G113R; 51.5 with human nectin-2δ H128R; 44.2 in assay [4]; 3.6 in assay [5]. For the same molecule, the binding result in assay [6] was “no binding (tested: ratio <2 = no reactivity; 6 µg/mL)”.
